Numbered stars: 1 amine (or outer) side, 2 acyl side, 3 side chain; on linkers, the order of the positions; unused ones are H or OH. Bridge positions count the residues as written; N and C are the ends. Side chains are listed from the residue outwards. Ends that are not written are not given here. * marks the point of attachment. C20 diacid = O=C(O)CCCCCCCCCCCCCCCCCCC(=O)*; C18 diacid = O=C(O)CCCCCCCCCCCCCCCCC(=O)*; C16 diacid = O=C(O)CCCCCCCCCCCCCCC(=O)*; γGlu = O=C(O)[C@H](CCC(=O)[*:2])N[*:1]; C14 diacid = O=C(O)CCCCCCCCCCCCC(=O)*

Test [1] has as its target T1, human calcitonin receptor (human, UniProt P30988 25-474).
T1 construct: whole, on cells; Membranes of BHK cells stably transfected with the human calcitonin receptor (Assay VII); also called hCTR; hCT
T1 sequence (looked up): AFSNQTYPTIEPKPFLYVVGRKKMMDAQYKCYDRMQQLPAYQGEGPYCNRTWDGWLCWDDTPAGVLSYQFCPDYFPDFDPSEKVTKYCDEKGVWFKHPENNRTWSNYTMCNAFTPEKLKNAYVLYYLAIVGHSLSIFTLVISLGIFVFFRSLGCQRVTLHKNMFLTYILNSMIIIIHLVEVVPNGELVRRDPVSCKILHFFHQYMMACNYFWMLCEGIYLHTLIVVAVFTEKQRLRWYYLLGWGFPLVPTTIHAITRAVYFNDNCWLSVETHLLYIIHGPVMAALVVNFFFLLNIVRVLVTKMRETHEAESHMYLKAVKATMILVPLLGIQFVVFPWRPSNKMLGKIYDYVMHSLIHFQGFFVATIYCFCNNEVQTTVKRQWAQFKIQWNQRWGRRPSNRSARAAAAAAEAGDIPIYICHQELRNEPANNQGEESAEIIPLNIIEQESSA
The test is described as follows: SPA competition against 125I-calcitonin, membranes of BHK cells with human calcitonin receptor (Assay VII). The protocol: Membranes were prepared in the following way; the cells were rinsed with PBS and incubated with Versene for approximately 5 min before harvesting. The cells were flushed with PBS and the cell-suspension was centrifuged for 5 min at 1000 rpm. Cells were homogenized (Ultrathurrax) in a buffer containing 20 mM Na-HEPES and 10 mM EDTA (pH 7.4) and centrifuged at 20.000 rpm for 15 min. The resulting pellet was resuspended, homogenized and centrifuged (20.000 rpm, 15 min) in a buffer containing 20 mM Na-HEPES and 0.1 mM EDTA (pH 7.4, buffer 2). The resulting pellet was resuspended in buffer 2 and protein concentration was measured (BCA protein Assay, Pierce). The homogenate was kept cold during the whole procedure. The membranes were kept at −80° C. until use. Assay was performed in a 384 well Optiplate (PerkinElmer) in a total volume of 40 ul. Membranes were mixed with SPA beads. Final concentration of membranes 35 ng/μL final and Final concentration of SPA beads was 0.05 mg/well. Test-compounds were dissolved in DMSO and further diluted in assay buffer (50 mM Hepes, pH 7.4, 1 mM CaCl2, 5 mM MgCl₂, 0.1% OA and 0.02% Tween20). […] The final mixture was incubated for 120 min with shaking at 400 rpm at 25° C. prior to centrifugation (1500 rpm, 10 min). Samples were analyzed on TopCounter™ (Packard). The […] was calculated using (one site binding competition analysis) GraphPad Prism5 as a measure of receptor affinity.

Test [2] concerns the target T1, human calcitonin receptor. In words: ratio of IC50 at hCTR over IC50 at hAmylin-R (SPA competition assays). On the procedure:
The resulting pellet was resuspended, homogenized and centrifuged (20.000 rpm, 15 min) in a buffer containing 20 mM Na-HEPES and 0.1 mM EDTA (pH 7.4, buffer 2). The resulting pellet was resuspended in buffer 2 and protein concentration was measured (BCA protein Assay, Pierce). The homogenate was kept cold during the whole procedure. The membranes were kept at −80° C. until use. The assay was performed in a 384 well Optiplate (PerkinElmer) in a total volume of 40 ul. Membranes were mixed with SPA beads. Final concentration of membranes 35 ng/μL final and SPA beads was 0.05 mg/well. Test-compounds were dissolved in DMSO and further diluted in assay buffer (50 mM Hepes, pH 7.4, 1 mM CaCl2, 5 mM MgCl₂, 0.1% OA and 0.02% Tween20). […] The final mixture was incubated with shaking at 400 rpm for 120 min at 25° C. prior to centrifugation (1500 rpm, 10 min). Samples were analyzed on TopCounter™ (Packard). The IC₅₀ was calculated using (one site binding competition analysis) GraphPad Prism5 as a measure of receptor affinity.
Membranes were prepared in the following way; the cells were rinsed with PBS and incubated with Versene for approximately 5 min before harvesting. The cells were flushed with PBS and the cell-suspension was centrifuged for 5 min at 1000 rpm. Cells were homogenized (Ultrathurrax) in a buffer containing 20 mM Na-HEPES and 10 mM EDTA (pH 7.4) and centrifuged at 20.000 rpm for 15 min. The resulting pellet was resuspended, homogenized and centrifuged (20.000 rpm, 15 min) in a buffer containing 20 mM Na-HEPES and 0.1 mM EDTA (pH 7.4, buffer 2). The resulting pellet was resuspended in buffer 2 and protein concentration was measured (BCA protein Assay, Pierce). The homogenate was kept cold during the whole procedure. The membranes were kept at −80° C. until use. Assay was performed in a 384 well Optiplate (PerkinElmer) in a total volume of 40 ul. Membranes were mixed with SPA beads.

B1: N^ε1-[(4S)-4-carboxy-4-(13-carboxytridecanoylamino)butanoyl]-[Arg17,Pro21,Pro27,His34]-h-amylin (peptide)
peptide: K([γGlu-C14 diacid])CNTATCATQRLANFLRHSSPNFGAIPSSTNVGHNTY-NH2
modifications: disulfide 2-7; N-terminus assumed
SMILES: CC[C@H](C)[C@H](NC(=O)[C@H](C)NC(=O)CNC(=O)[C@H](Cc1ccccc1)NC(=O)[C@H](CC(N)=O)NC(=O)[C@@H]1CCCN1C(=O)[C@H](CO)NC(=O)[C@H](CO)NC(=O)[C@H](Cc1c[nH]cn1)NC(=O)[C@H](CCCNC(=N)N)NC(=O)[C@H](CC(C)C)NC(=O)[C@H](Cc1ccccc1)NC(=O)[C@H](CC(N)=O)NC(=O)[C@H](C)NC(=O)[C@H](CC(C)C)NC(=O)[C@H](CCCNC(=N)N)NC(=O)[C@H](CCC(N)=O)NC(=O)[C@@H](NC(=O)[C@H](C)NC(=O)[C@@H]1CSSC[C@H](NC(=O)[C@@H](N)CCCCNC(=O)CC[C@H](NC(=O)CCCCCCCCCCCCC(=O)O)C(=O)O)C(=O)N[C@@H](CC(N)=O)C(=O)N[C@@H]([C@@H](C)O)C(=O)N[C@@H](C)C(=O)N[C@@H]([C@@H](C)O)C(=O)N1)[C@@H](C)O)C(=O)N1CCC[C@H]1C(=O)N[C@@H](CO)C(=O)N[C@@H](CO)C(=O)N[C@H](C(=O)N[C@@H](CC(N)=O)C(=O)N[C@H](C(=O)NCC(=O)N[C@@H](Cc1c[nH]cn1)C(=O)N[C@@H](CC(N)=O)C(=O)N[C@H](C(=O)N[C@@H](Cc1ccc(O)cc1)C(N)=O)[C@@H](C)O)C(C)C)[C@@H](C)O
As to B1, the IC50 in test [1] was 24.3 nM. For the same molecule, in test [2], the “Ratio hCT/hAmylin binding” value stood at 23.5.

B2: N^ε1-[(4S)-4-carboxy-4-(15-carboxypentadecanoylamino)butanoyl]-[Arg17,Pro21,Pro27,His34]-h-amylin (peptide)
peptide: K([γGlu-C16 diacid])CNTATCATQRLANFLRHSSPNFGAIPSSTNVGHNTY-NH2
modifications: disulfide 2-7; N-terminus assumed
SMILES: CC[C@H](C)[C@H](NC(=O)[C@H](C)NC(=O)CNC(=O)[C@H](Cc1ccccc1)NC(=O)[C@H](CC(N)=O)NC(=O)[C@@H]1CCCN1C(=O)[C@H](CO)NC(=O)[C@H](CO)NC(=O)[C@H](Cc1c[nH]cn1)NC(=O)[C@H](CCCNC(=N)N)NC(=O)[C@H](CC(C)C)NC(=O)[C@H](Cc1ccccc1)NC(=O)[C@H](CC(N)=O)NC(=O)[C@H](C)NC(=O)[C@H](CC(C)C)NC(=O)[C@H](CCCNC(=N)N)NC(=O)[C@H](CCC(N)=O)NC(=O)[C@@H](NC(=O)[C@H](C)NC(=O)[C@@H]1CSSC[C@H](NC(=O)[C@@H](N)CCCCNC(=O)CC[C@H](NC(=O)CCCCCCCCCCCCCCC(=O)O)C(=O)O)C(=O)N[C@@H](CC(N)=O)C(=O)N[C@@H]([C@@H](C)O)C(=O)N[C@@H](C)C(=O)N[C@@H]([C@@H](C)O)C(=O)N1)[C@@H](C)O)C(=O)N1CCC[C@H]1C(=O)N[C@@H](CO)C(=O)N[C@@H](CO)C(=O)N[C@H](C(=O)N[C@@H](CC(N)=O)C(=O)N[C@H](C(=O)NCC(=O)N[C@@H](Cc1c[nH]cn1)C(=O)N[C@@H](CC(N)=O)C(=O)N[C@H](C(=O)N[C@@H](Cc1ccc(O)cc1)C(N)=O)[C@@H](C)O)C(C)C)[C@@H](C)O
B2: the IC50 in test [1] worked out at 10.8 nM. The “Ratio hCT/hAmylin binding” value in test [2] was found to be 18.5.

B3: N^ε1-[(4S)-4-carboxy-4-(17-carboxyheptadecanoylamino)butanoyl]-[Arg17,Pro21,Pro27,His34]-h-amylin (peptide)
peptide: K([γGlu-C18 diacid])CNTATCATQRLANFLRHSSPNFGAIPSSTNVGHNTY-NH2
modifications: disulfide 2-7; N-terminus assumed
SMILES: CC[C@H](C)[C@H](NC(=O)[C@H](C)NC(=O)CNC(=O)[C@H](Cc1ccccc1)NC(=O)[C@H](CC(N)=O)NC(=O)[C@@H]1CCCN1C(=O)[C@H](CO)NC(=O)[C@H](CO)NC(=O)[C@H](Cc1c[nH]cn1)NC(=O)[C@H](CCCNC(=N)N)NC(=O)[C@H](CC(C)C)NC(=O)[C@H](Cc1ccccc1)NC(=O)[C@H](CC(N)=O)NC(=O)[C@H](C)NC(=O)[C@H](CC(C)C)NC(=O)[C@H](CCCNC(=N)N)NC(=O)[C@H](CCC(N)=O)NC(=O)[C@@H](NC(=O)[C@H](C)NC(=O)[C@@H]1CSSC[C@H](NC(=O)[C@@H](N)CCCCNC(=O)CC[C@H](NC(=O)CCCCCCCCCCCCCCCCC(=O)O)C(=O)O)C(=O)N[C@@H](CC(N)=O)C(=O)N[C@@H]([C@@H](C)O)C(=O)N[C@@H](C)C(=O)N[C@@H]([C@@H](C)O)C(=O)N1)[C@@H](C)O)C(=O)N1CCC[C@H]1C(=O)N[C@@H](CO)C(=O)N[C@@H](CO)C(=O)N[C@H](C(=O)N[C@@H](CC(N)=O)C(=O)N[C@H](C(=O)NCC(=O)N[C@@H](Cc1c[nH]cn1)C(=O)N[C@@H](CC(N)=O)C(=O)N[C@H](C(=O)N[C@@H](Cc1ccc(O)cc1)C(N)=O)[C@@H](C)O)C(C)C)[C@@H](C)O
For B3, the IC50 in test [1] was 22.7 nM. Further, in test [2], the “Ratio hCT/hAmylin binding” value worked out at 59.4.

B4: N^ε1-[(4S)-4-carboxy-4-(19-carboxynonadecanoylamino)butanoyl]-[Asp14,Arg17,Pro21,Pro27,Pro34,Arg35]-h-amylin (peptide)
peptide: K([γGlu-C20 diacid])CNTATCATQRLADFLRHSSPNFGAIPSSTNVGPRTY-NH2
modifications: disulfide 2-7; N-terminus assumed
SMILES: CC[C@H](C)[C@H](NC(=O)[C@H](C)NC(=O)CNC(=O)[C@H](Cc1ccccc1)NC(=O)[C@H](CC(N)=O)NC(=O)[C@@H]1CCCN1C(=O)[C@H](CO)NC(=O)[C@H](CO)NC(=O)[C@H](Cc1c[nH]cn1)NC(=O)[C@H](CCCNC(=N)N)NC(=O)[C@H](CC(C)C)NC(=O)[C@H](Cc1ccccc1)NC(=O)[C@H](CC(=O)O)NC(=O)[C@H](C)NC(=O)[C@H](CC(C)C)NC(=O)[C@H](CCCNC(=N)N)NC(=O)[C@H](CCC(N)=O)NC(=O)[C@@H](NC(=O)[C@H](C)NC(=O)[C@@H]1CSSC[C@H](NC(=O)[C@@H](N)CCCCNC(=O)CC[C@H](NC(=O)CCCCCCCCCCCCCCCCCCC(=O)O)C(=O)O)C(=O)N[C@@H](CC(N)=O)C(=O)N[C@@H]([C@@H](C)O)C(=O)N[C@@H](C)C(=O)N[C@@H]([C@@H](C)O)C(=O)N1)[C@@H](C)O)C(=O)N1CCC[C@H]1C(=O)N[C@@H](CO)C(=O)N[C@@H](CO)C(=O)N[C@H](C(=O)N[C@@H](CC(N)=O)C(=O)N[C@H](C(=O)NCC(=O)N1CCC[C@H]1C(=O)N[C@@H](CCCNC(=N)N)C(=O)N[C@H](C(=O)N[C@@H](Cc1ccc(O)cc1)C(N)=O)[C@@H](C)O)C(C)C)[C@@H](C)O
B4: the IC50 in test [1] was found to be 42.5 nM. Moreover, the “Ratio hCT/hAmylin binding” value in test [2] was 151.
